Results: article PMC11173125

Target: Nsp9 (SARS-CoV-2, UniProt P0DTD1 4141-4253)
Assay: EMSA
Conditions: protein: recombinant; tags: C-terminal […]; (pET21b); chain copies: 2; label: 5' biotin; single strand

With TTTTTTTTTTTTTTTTTTTTTTTTTTTTTTTTTTTTTTTTTTTTT (ssDNA) [dT45] the “apparent K (half saturation)” value was 33.5 ± 2.5 µM.
